Values quoted from earlier work in PMC11596140.

Molecular target: Cdc4 (Saccharomyces cerevisiae) (UniProt P07834)
Assay: intrinsic Trp fluorescence

Sequence of UniProt P07834 (P07834 whole entry): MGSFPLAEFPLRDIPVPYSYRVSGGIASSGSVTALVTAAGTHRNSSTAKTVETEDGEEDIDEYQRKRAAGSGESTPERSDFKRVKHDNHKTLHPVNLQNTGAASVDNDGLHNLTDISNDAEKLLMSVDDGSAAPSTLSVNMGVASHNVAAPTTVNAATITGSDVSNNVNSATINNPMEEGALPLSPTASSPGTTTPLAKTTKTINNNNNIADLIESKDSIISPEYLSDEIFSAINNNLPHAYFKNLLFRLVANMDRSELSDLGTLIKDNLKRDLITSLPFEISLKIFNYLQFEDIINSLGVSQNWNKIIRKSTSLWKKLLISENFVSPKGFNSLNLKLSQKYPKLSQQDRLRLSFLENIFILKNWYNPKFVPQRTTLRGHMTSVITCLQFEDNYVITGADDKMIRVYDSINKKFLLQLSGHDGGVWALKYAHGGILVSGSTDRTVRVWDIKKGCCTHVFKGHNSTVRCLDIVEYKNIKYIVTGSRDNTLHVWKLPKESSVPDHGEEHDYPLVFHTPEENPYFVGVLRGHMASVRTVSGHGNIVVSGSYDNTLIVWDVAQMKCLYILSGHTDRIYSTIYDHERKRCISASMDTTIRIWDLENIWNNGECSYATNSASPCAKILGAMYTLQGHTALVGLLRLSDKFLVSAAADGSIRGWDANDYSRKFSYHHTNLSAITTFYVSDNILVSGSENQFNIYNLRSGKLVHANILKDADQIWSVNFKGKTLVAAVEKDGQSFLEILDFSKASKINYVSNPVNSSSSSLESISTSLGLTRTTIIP

Sic1 (from UniProt P38634)
Kd: 600 nM
